B1: SOAT1 (parent)
chain: PSNGRIDIKQLIAKKIKLTAEAEE
B2: TRAF3IP2 (parent)
chain: KQGSMNFRFIPVLFPNAKKEHVPT

Variants of: B1
Test: protein stability index of a GFP-peptide fusion (GPS, HEK-293T) (PSI 1-6); higher = more stable
Conditions: c terminus: a fixed tail appended
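Note: lentivirally expressed fusions sorted by FACS into six bins by GFP to DsRed ratio, PSI derived from sequencing read proportions per bin multiplied by bin number.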

| Variant | protein stability index |
| --- | --- |
| PSNGRIDIKQLIAKKIKLTAEAED [E24D] | 3.39 |
| PSNGRIDIKQLIAKKIKLTAEAEF [E24F] | 2.22 |
| PSNGQIDIKQLIAKKIKLTAEAEE [R5Q] | 3.13 |
| WSNGRIDIKQLIAKKIKLTAEAEE [P1W] | 2.92 |
| PSNGRIDIKQLVAKKIKLTAEAEE [I12V] | 3.48 |
| PSNGRIDIKQLILKKIKLTAEAEE [A13L] | 3.13 |
| PSNGRIDIKQLISKKIKLTAEAEE [A13S] | 3.36 |
| PSNGRIDIQQLIAKKIKLTAEAEE [K9Q] | 3.47 |
| PSNGRIDIMQLIAKKIKLTAEAEE [K9M] | 2.99 |
| PSNGRIDIKQLIAKKIFLTAEAEE [K17F] | 3.15 |
| PSNGRIDIKQLIAKKIILTAEAEE [K17I] | 2.84 |
| PSNGRIDIKQLIAKFIKLTAEAEE [K15F] | 2.47 |
| PSNGRIDIKPLIAKKIKLTAEAEE [Q10P] | 3.88 |
| PSNGRIDIKQRIAKKIKLTAEAEE [L11R] | 3.93 |
| PSNGRIDIKQLIAKKIKLTARAEE [E21R] | 2.95 |
| PSNGRIDIKQLIAKKIKLTAEASE [E23S] | 2.51 |
| PSNGRIDIKQLIAKKIKLTAEARE [E23R] | 2.74 |
| PSNGRIDIKQLIAKKIKQTAEAEE [L18Q] | 3.89 |
| PSNGRIDIKQLIAKKIKYTAEAEE [L18Y] | 3.13 |
| PSNNRIDIKQLIAKKIKLTAEAEE [G4N] | 3.76 |
| PSNRRIDIKQLIAKKIKLTAEAEE [G4R] | 3.56 |
| PSNYRIDIKQLIAKKIKLTAEAEE [G4Y] | 2.91 |
| PSNGRIDIKQLIAKKIKLTHEAEE [A20H] | 3.66 |
| PSNGRIDIKQLIAKKIKLTREAEE [A20R] | 3.07 |

Variants of: B2
Test: as above
Conditions: c terminus: a fixed tail appended

| Variant | protein stability index |
| --- | --- |
| KQGDMNFRFIPVLFPNAKKEHVPT [S4D] | 2.4 |
| KQGYMNFRFIPVLFPNAKKEHVPT [S4Y] | 2.14 |
| KQGCMNFRFIPVLFPNAKKEHVPT [S4C] | 1.73 |
| KQGTMNFRFIPVLFPNAKKEHVPT [S4T] | 2 |
| KQGGMNFRFIPVLFPNAKKEHVPT [S4G] | 1.53 |
| KQGMMNFRFIPVLFPNAKKEHVPT [S4M] | 1.81 |
| KQGEMNFRFIPVLFPNAKKEHVPT [S4E] | 2.57 |
| KQGPMNFRFIPVLFPNAKKEHVPT [S4P] | 2.98 |
| KQGNMNFRFIPVLFPNAKKEHVPT [S4N] | 2.26 |
| KQGKMNFRFIPVLFPNAKKEHVPT [S4K] | 1.74 |
| KQGQMNFRFIPVLFPNAKKEHVPT [S4Q] | 2.59 |
| KQGAMNFRFIPVLFPNAKKEHVPT [S4A] | 2.68 |
| KQGFMNFRFIPVLFPNAKKEHVPT [S4F] | 1.5 |
| KQGWMNFRFIPVLFPNAKKEHVPT [S4W] | 1.41 |
| KQGRMNFRFIPVLFPNAKKEHVPT [S4R] | 1.48 |
| KQGHMNFRFIPVLFPNAKKEHVPT [S4H] | 1.68 |
| KQGLMNFRFIPVLFPNAKKEHVPT [S4L] | 1.2 |
| KQGVMNFRFIPVLFPNAKKEHVPT [S4V] | 1.87 |
| KQGSMGFRFIPVLFPNAKKEHVPT [N6G] | 1.56 |
| KQGSMLFRFIPVLFPNAKKEHVPT [N6L] | 1.81 |
| KQGSMEFRFIPVLFPNAKKEHVPT [N6E] | 2.1 |
| KQGSMWFRFIPVLFPNAKKEHVPT [N6W] | 1.83 |
| KQGSMFFRFIPVLFPNAKKEHVPT [N6F] | 1.74 |
| KQGSMDFRFIPVLFPNAKKEHVPT [N6D] | 1.89 |

| Variant | protein stability index |
| --- | --- |
| KQGSMQFRFIPVLFPNAKKEHVPT [N6Q] | 1.81 |
| KQGSMTFRFIPVLFPNAKKEHVPT [N6T] | 1.96 |
| KQGSMRFRFIPVLFPNAKKEHVPT [N6R] | 1.66 |
| KQGSMYFRFIPVLFPNAKKEHVPT [N6Y] | 2.14 |
| KQGSMKFRFIPVLFPNAKKEHVPT [N6K] | 1.6 |
| KQGSMCFRFIPVLFPNAKKEHVPT [N6C] | 1.67 |
| KQGSMAFRFIPVLFPNAKKEHVPT [N6A] | 1.76 |
| KQGSMHFRFIPVLFPNAKKEHVPT [N6H] | 1.72 |
| KQGSMMFRFIPVLFPNAKKEHVPT [N6M] | 1.58 |
| KQGSMSFRFIPVLFPNAKKEHVPT [N6S] | 1.96 |
| KQGSMIFRFIPVLFPNAKKEHVPT [N6I] | 2.15 |
| KQGSMPFRFIPVLFPNAKKEHVPT [N6P] | 2.44 |
| KQGSMVFRFIPVLFPNAKKEHVPT [N6V] | 1.93 |
| KQGSTNFRFIPVLFPNAKKEHVPT [M5T] | 2.5 |
| KQGSWNFRFIPVLFPNAKKEHVPT [M5W] | 1.8 |
| KQGSANFRFIPVLFPNAKKEHVPT [M5A] | 2.21 |
| KQGSDNFRFIPVLFPNAKKEHVPT [M5D] | 3.35 |
| KQGSVNFRFIPVLFPNAKKEHVPT [M5V] | 1.91 |
| KQGSRNFRFIPVLFPNAKKEHVPT [M5R] | 2.2 |
| KQGSKNFRFIPVLFPNAKKEHVPT [M5K] | 2.8 |
| KQGSGNFRFIPVLFPNAKKEHVPT [M5G] | 2.43 |
| KQGSLNFRFIPVLFPNAKKEHVPT [M5L] | 1.97 |
| KQGSINFRFIPVLFPNAKKEHVPT [M5I] | 2.01 |
| KQGSYNFRFIPVLFPNAKKEHVPT [M5Y] | 1.87 |

| Variant | protein stability index |
| --- | --- |
| KQGSCNFRFIPVLFPNAKKEHVPT [M5C] | 1.98 |
| KQGSFNFRFIPVLFPNAKKEHVPT [M5F] | 1.52 |
| KQGSQNFRFIPVLFPNAKKEHVPT [M5Q] | 2.65 |
| KQGSENFRFIPVLFPNAKKEHVPT [M5E] | 2.88 |
| KQGSHNFRFIPVLFPNAKKEHVPT [M5H] | 2.15 |
| KQGSSNFRFIPVLFPNAKKEHVPT [M5S] | 2.04 |
| KQGSPNFRFIPVLFPNAKKEHVPT [M5P] | 2.1 |
| KQGSNNFRFIPVLFPNAKKEHVPT [M5N] | 2.44 |
| KQRSMNFRFIPVLFPNAKKEHVPT [G3R] | 1.83 |
| KQHSMNFRFIPVLFPNAKKEHVPT [G3H] | 2.01 |
| KQKSMNFRFIPVLFPNAKKEHVPT [G3K] | 1.6 |
| KQYSMNFRFIPVLFPNAKKEHVPT [G3Y] | 1.33 |
| KQFSMNFRFIPVLFPNAKKEHVPT [G3F] | 3.01 |
| KQSSMNFRFIPVLFPNAKKEHVPT [G3S] | 1.82 |
| KQASMNFRFIPVLFPNAKKEHVPT [G3A] | 1.9 |
| KQWSMNFRFIPVLFPNAKKEHVPT [G3W] | 2.25 |
| KQDSMNFRFIPVLFPNAKKEHVPT [G3D] | 2.02 |
| KQLSMNFRFIPVLFPNAKKEHVPT [G3L] | 1.67 |
| KQQSMNFRFIPVLFPNAKKEHVPT [G3Q] | 1.85 |
| KQMSMNFRFIPVLFPNAKKEHVPT [G3M] | 1.75 |
| KQISMNFRFIPVLFPNAKKEHVPT [G3I] | 1.77 |
| KQNSMNFRFIPVLFPNAKKEHVPT [G3N] | 2.05 |

Source: the supplement of paper PMC10567573
